Where two headings read alike, the source gives them in different places.
Assays:
[1] = test system: HT1080 tumor bearing mice; design: species or system mouse (Balb/c nu-nu); details: mouse, in vivo, iv
Protocol: (§1) […]3000 and […] (37 kBq, 100 μl in PBS including 3% bovine serum albumin and 0.1% Tween 80) were injected intravenously into the tail vein of tumor bearing mice. The mice were sacrificed at various post-injection time points (n = 3 for each time point), and the organs of interest including the tumor tissues were collected for determination of the weights. The radioactivity of each sample was measured with a NaI well-type scintillation counter. From fitting to the two phase decay curves for blood radioactivity data analyzed by GraphPad Prism 6 (GraphPad Software, San Diego, CA), whole body pharmacokinetic parameters such as blood half-lives, distribution volume, mean residence time and total clearance were calculated for each of the probes and the values compared. Simple pharmacokinetic analysis using a single tissue compartment model was applied to the biodistribution data to calculate rate constants (K1 and k2) for radioactivity transfer from blood to tumor and clearance from tumor to blood by PMOD version 3.2. In addition, MDAP3000 (7.4 MBq in 200 μl) was injected intravenously into the tail vein of tumor bearing mice for metabolite analysis in tumors excised 3, 6, and 24 hr post injection (n = 2 each). Tumor homogenates were prepared on ice and insoluble material was removed by centrifugation after methanol treatment. The resulting supernatant was analyzed by RP-HPLC.

HT1080 tumor xenograft = test system: HT1080 tumor xenograft; design: species or system mouse (Balb/c nu-nu); details: mouse, in vivo
Protocol: as §1

[2] = test system: HT1080 tumor bearing mice; design: species or system mouse (Balb/c nu-nu); details: mouse, in vivo, iv; for Radioactivity biodistribution, Blood / Radioactivity biodistribution, Heart / Radioactivity biodistribution, Intestine / Radioactivity biodistribution, Kidneys / Radioactivity biodistribution, Liver / Radioactivity biodistribution, Lung / Radioactivity biodistribution, Muscle / Radioactivity biodistribution, Pancreas / Radioactivity biodistribution, Spleen / Radioactivity biodistribution, Stomach / Radioactivity biodistribution, Tumor / T/B (tumor to blood ratio): 37 kBq
Protocol: Female Balb/c nu-nu mice (5 weeks old, Japan SLC, Inc., Shizuoka, Japan) were housed under a 12-h light/12-h dark cycle and given free access to food and water. HT1080 cells (5×10^6 cells/100 μl PBS (-)/mouse) were subcutaneously inoculated into the right hind leg of Balb/c nu-nu mice. Animals were used for experiments two weeks after inoculation when the mean tumor size was 5.7±2.2 mm along the major axis. […]3000 and […] (37 kBq, 100 μl in PBS including 3% bovine serum albumin and 0.1% Tween 80) were injected intravenously into the tail vein of tumor bearing mice. The mice were sacrificed at various post-injection time points (n = 3 for each time point), and the organs of interest including the tumor tissues were collected for determination of the weights. The radioactivity of each sample was measured with a NaI well-type scintillation counter. From fitting to the two phase decay curves for blood radioactivity data analyzed by GraphPad Prism 6 (GraphPad Software, San Diego, CA), whole body pharmacokinetic parameters such as blood half-lives, distribution volume, mean residence time and total clearance were calculated for each of the probes and the values compared. Simple pharmacokinetic analysis using a single tissue compartment model was applied to the biodistribution data to calculate rate constants (K1 and k2) for radioactivity transfer from blood to tumor and clearance from tumor to blood by PMOD version 3.2. In addition, MDAP3000 (7.4 MBq in 200 μl) was injected intravenously into the tail vein of tumor bearing mice for metabolite analysis in tumors excised 3, 6, and 24 hr post injection (n = 2 each). Tumor homogenates were prepared on ice and insoluble material was removed by centrifugation after methanol treatment. The resulting supernatant was analyzed by RP-HPLC.

[3] = test system: HT1080 human fibrosarcoma cells; experiment: Cellular uptake study; format: cell-based
Protocol: HT1080 human fibrosarcoma cells were purchased from American Type Culture Collection (ATCC, Manassas, VA USA) and cultured in DMEM with low glucose (Invitrogen), 10% fetal bovine serum (FBS), and penicillin/streptomycin. MMP-2 cDNA was cloned into the pENTR vector (Invitrogen) and inserted into the pLenti6 vector (Invitrogen) as previously described, [7]. […] Protein quantitation was performed by BCA protein assay (Thermo Fisher Scientific, Inc. Rockford, IL USA). The cellular uptake study of MDAP3000 pretreated with activated MMP-2 (63 nM) in the presence or absence of GM6001 (100 µM) was performed as described above.

## Palmitoyl-Dap(p-SCN-Bn-DTPA-^111In)-10-Adc-Gly-Pro-Leu-Gly-Val-Arg-Gly-Lys(ivDde)-PEG3000 [MDAP3000]
[1]
  Blood half-life, Fast: 5.6×10 min
  Blood half-life, Slow: 7.17 h
  Clearance (total clearance): 0.0079 mL/min
  Distribution volume: 1.94 mL
  Mean residence time: 250 min
HT1080 tumor xenograft
  Slower washout rate from the tumor (k2) compared to MDAPCV: approximately seven-fold
HT1080 tumor xenograft; iv
  K1, rate constant for transfer from blood to tumor, Mean: 0.0013 mL/g/min
[2]
  Blood clearance (in words): rapid blood clearance
  Tumor accumulation (in words): high tumor accumulation
[2]; 0.25 h
  Radioactivity biodistribution, Blood: 44.98±2.53 % injected dose per gram
  Radioactivity biodistribution, Heart: 9.26±0.86 % injected dose per gram
  Radioactivity biodistribution, Intestine: 3.59±0.24 % injected dose per gram
  Radioactivity biodistribution, Kidneys: 11.85±0.84 % injected dose per gram
  Radioactivity biodistribution, Liver: 18.83±1.38 % injected dose per gram
  Radioactivity biodistribution, Lung: 20.44±4.77 % injected dose per gram
  Radioactivity biodistribution, Muscle: 1.72±0.76 % injected dose per gram
  Radioactivity biodistribution, Pancreas: 3.91±0.33 % injected dose per gram
  Radioactivity biodistribution, Spleen: 6.53±0.34 % injected dose per gram
  Radioactivity biodistribution, Stomach: 0.48±0.04 % injected dose per organ
  Radioactivity biodistribution, Tumor: 3.60±0.17 % injected dose per gram
  T/B (tumor to blood ratio): 0.08±0.01
[2]; 1 h
  Radioactivity biodistribution, Blood: 30.48±1.67 % injected dose per gram
  Radioactivity biodistribution, Heart: 8.20±0.74 % injected dose per gram
  Radioactivity biodistribution, Intestine: 5.85±0.11 % injected dose per gram
  Radioactivity biodistribution, Kidneys: 10.60±0.38 % injected dose per gram
  Radioactivity biodistribution, Liver: 18.45±0.81 % injected dose per gram
  Radioactivity biodistribution, Lung: 15.92±0.58 % injected dose per gram
  Radioactivity biodistribution, Muscle: 1.27±0.20 % injected dose per gram
  Radioactivity biodistribution, Pancreas: 4.35±0.74 % injected dose per gram
  Radioactivity biodistribution, Spleen: 5.65±0.98 % injected dose per gram
  Radioactivity biodistribution, Stomach: 0.69±0.21 % injected dose per organ
  Radioactivity biodistribution, Tumor: 5.49±0.53 % injected dose per gram
  T/B (tumor to blood ratio): 0.18±0.03
[2]; 3 h
  Radioactivity biodistribution, Blood: 15.33±0.81 % injected dose per gram
  Radioactivity biodistribution, Heart: 6.70±0.59 % injected dose per gram
  Radioactivity biodistribution, Intestine: 13.13±1.73 % injected dose per gram
  Radioactivity biodistribution, Kidneys: 11.89±0.76 % injected dose per gram
  Radioactivity biodistribution, Liver: 22.83±3.72 % injected dose per gram
  Radioactivity biodistribution, Lung: 9.72±1.02 % injected dose per gram
  Radioactivity biodistribution, Muscle: 1.49±0.15 % injected dose per gram
  Radioactivity biodistribution, Pancreas: 5.25±0.57 % injected dose per gram
  Radioactivity biodistribution, Spleen: 5.41±0.64 % injected dose per gram
  Radioactivity biodistribution, Stomach: 1.17±0.82 % injected dose per organ
  Radioactivity biodistribution, Tumor: 5.49±0.36 % injected dose per gram
  T/B (tumor to blood ratio): 0.36±0.04
[2]; 6 h
  Radioactivity biodistribution, Blood: 8.33±0.58 % injected dose per gram
  Radioactivity biodistribution, Heart: 5.64±0.79 % injected dose per gram
  Radioactivity biodistribution, Intestine: 14.08±2.39 % injected dose per gram
  Radioactivity biodistribution, Kidneys: 11.40±1.18 % injected dose per gram
  Radioactivity biodistribution, Liver: 17.61±2.53 % injected dose per gram
  Radioactivity biodistribution, Lung: 5.56±0.75 % injected dose per gram
  Radioactivity biodistribution, Muscle: 1.43±0.28 % injected dose per gram
  Radioactivity biodistribution, Pancreas: 4.97±1.31 % injected dose per gram
  Radioactivity biodistribution, Spleen: 4.94±1.51 % injected dose per gram
  Radioactivity biodistribution, Stomach: 0.97±0.46 % injected dose per organ
  Radioactivity biodistribution, Tumor: 7.31±1.12 % injected dose per gram
  T/B (tumor to blood ratio): 0.88±0.14
[2]; 24 h
  Radioactivity biodistribution, Blood: 1.61±0.27 % injected dose per gram
  Radioactivity biodistribution, Heart: 3.78±0.39 % injected dose per gram
  Radioactivity biodistribution, Intestine: 3.70±1.06 % injected dose per gram
  Radioactivity biodistribution, Kidneys: 10.81±2.35 % injected dose per gram
  Radioactivity biodistribution, Liver: 10.51±0.89 % injected dose per gram
  Radioactivity biodistribution, Lung: 2.50±0.44 % injected dose per gram
  Radioactivity biodistribution, Muscle: 1.02±0.16 % injected dose per gram
  Radioactivity biodistribution, Pancreas: 3.92±0.68 % injected dose per gram
  Radioactivity biodistribution, Spleen: 3.92±0.24 % injected dose per gram
  Radioactivity biodistribution, Stomach: 0.54±0.07 % injected dose per organ
  Radioactivity biodistribution, Tumor: 4.25±0.79 % injected dose per gram
  T/B (tumor to blood ratio): 2.74±0.89
[3]; 5×10^5 HT1080 cells, FBS-free DMEM, 37 kBq probe, 30 min incubation, radioactivity counting, Fig. 3a
  Cellular accumulation (radioactivity in tumor cells): significantly lower radioactivity
[3]; HT1080 cells, activated MMP-2 (63 nM) plus GM6001 (100 µM), Fig. 3c
  Increased cellular uptake of MMP-2 pretreated probe with additional MMP inhibitor: completely blocked
[3]; HT1080 cells, probe pretreated with activated MMP-2 (63 nM), 30 min, Fig. 3c
  Cellular accumulation of probe pretreated with MMP-2: accumulated in cells to higher levels
